Compound in data set [1]: N=C(N)NCCC[C@H](NC(=O)OCc1ccccc1)C(=O)N[C@@H](CCCNC(=N)N)C(=O)Nc1ccc2ccc(=O)oc2c1
The data set is described as follows: (§1) Inhibition of Trypanosoma cruzi cruzipain assessed as ratio of Kcat/Km using Z-Phe-Arg-MCA as substrate by spectrofluorometric method.

Compound in data set [2]: N=C(N)NCCC[C@H](NC(=O)[C@H](Cc1ccc(NC(=N)N)cc1)NC(=O)OCc1ccccc1)C(=O)Nc1ccc2ccc(=O)oc2c1
Described as §1.

Compound in data set [3]: N=C(N)NCCC[C@H](NC(=O)[C@H](Cc1ccccc1)NC(=O)OCc1ccccc1)C(=O)Nc1ccc2ccc(=O)oc2c1
Described as §1.

Compound in data set [4]: N=C(N)NCCC[C@H](NC(=O)[C@H](Cc1ccncc1)NC(=O)OCc1ccccc1)C(=O)Nc1ccc2ccc(=O)oc2c1
Described as §1.

Substrate in data set [5]: N=C(N)NCCC[C@H](NC(=O)OCc1ccccc1)C(=O)N[C@@H](CCCNC(=N)N)C(=O)Nc1ccc2ccc(=O)oc2c1
The data set can be described thus: (§2) Inhibition of human cathepsin L assessed as ratio of Kcat/Km using Z-Phe-Arg-MCA as substrate by spectrofluorometric method.

Substrate in data set [6]: N=C(N)NCCC[C@H](NC(=O)[C@H](Cc1ccc(NC(=N)N)cc1)NC(=O)OCc1ccccc1)C(=O)Nc1ccc2ccc(=O)oc2c1
Described as §2.

Substrate in data set [7]: N=C(N)NCCC[C@H](NC(=O)[C@H](Cc1ccccc1)NC(=O)OCc1ccccc1)C(=O)Nc1ccc2ccc(=O)oc2c1
The description is as §2.

Substrate in data set [8]: N=C(N)NCCC[C@H](NC(=O)[C@H](Cc1ccncc1)NC(=O)OCc1ccccc1)C(=O)Nc1ccc2ccc(=O)oc2c1
The description is as §2.

B1: Cruzipain (Trypanosoma cruzi), P25779 (protein)
chain: MSGWARALLLAAVLVVMACLVPAATASLHAEETLTSQFAEFKQKHGRVYESAAEEAFRLSVFRENLFLARLHAAANPHATFGVTPFSDLTREEFRSRYHNGAAHFAAAQERARVPVKVEVVGAPAAVDWRARGAVTAVKDQGQCGSCWAFSAIGNVECQWFLAGHPLTNLSEQMLVSCDKTDSGCSGGLMNNAFEWIVQENNGAVYTEDSYPYASGEGISPPCTTSGHTVGATITGHVELPQDEAQIAAWLAVNGPVAVAVDASSWMTYTGGVMTSCVSEQLDHGVLLVGYNDSAAVPYWIIKNSWTTQWGEEGYIRIAKGSNQCLVKEEASSAVVGGPGPTPEPTTTTTTSAPGPSPSYFVQMSCTDAACIVGCENVTLPTGQCLLTTSGVSAIVTCGAETLTEEVFLTSTHCSGPSVRSSVPLNKCNRLLRGSVEFFCGSSSSGRLADVDRQRRHQPYHSRHRRL
By kcat/Km is commonly meant the second-order rate constant that governs catalysis at low substrate concentration. On to B1, for which the kcat/Km in data set [1] amounted to 395000 M⁻¹ s⁻¹; in data set [2], 1.1e+06 M⁻¹ s⁻¹; in data set [3], 9.67e+06 M⁻¹ s⁻¹; in data set [4], 6.95e+06 M⁻¹ s⁻¹.

B2: Procathepsin L (Homo sapiens) (protein)
chain: MNPTLILAAFCLGIASATLTFDHSLEAQWTKWKAMHNRLYGMNEEGWRRAVWEKNMKMIELHNQEYREGKHSFTMAMNAFGDMTSEEFRQVMNGFQNRKPRKGKVFQEPLFYEAPRSVDWREKGYVTPVKNQGQCGSCWAFSATGALEGQMFRKTGRLISLSEQNLVDCSGPQGNEGCNGGLMDYAFQYVQDNGGLDSEESYPYEATEESCKYNPKYSVANDTGFVDIPKQEKALMKAVATVGPISVAIDAGHESFLFYKEGIYFEPDCSSEDMDHGVLVVGYGFESTESDNNKYWLVKNSWGEEWGMGGYVKMAKDRRNHCGIASAASYPTV
For the protein B2, the kcat/Km turned out to be 37000 M⁻¹ s⁻¹ in data set [5], 438000 M⁻¹ s⁻¹ in data set [6], 9.46e+06 M⁻¹ s⁻¹ in data set [7] and 818000 M⁻¹ s⁻¹ in data set [8].

The values above are taken from ChEMBL document CHEMBL4321793, “Can Cysteine Protease Cross-Class Inhibitors Achieve Selectivity?” (J Med Chem, 2019).
